According to patent US20260242478A1 (published 2026):
Where no end group is shown, it is not given here.

B1: Phage-702 (peptide)
peptide: YCEGHSIQYMAKCL
modifications: cysteine pairing not given here; also: displayed on phage by fusion to pIII, pIII and linker sequence not given here
B2: Phage-697 (peptide)
peptide: YCDGHSPMYIGKCL
modifications: cysteine pairing not given here; also: displayed on phage by fusion to pIII, pIII and linker sequence not given here
B3: Phage-699 (peptide)
peptide: YCEGHRPEYMQKCL
modifications: cysteine pairing not given here; also: displayed on phage by fusion to pIII, pIII and linker sequence not given here
B4: Phage-707 (peptide)
peptide: YCDGHSHEYMEKCL
modifications: cysteine pairing not given here; also: displayed on phage by fusion to pIII, pIII and linker sequence not given here
B5: Phage-700 (peptide)
peptide: YCEGHAREHMAKCL
modifications: cysteine pairing not given here; also: displayed on phage by fusion to pIII, pIII and linker sequence not given here
B6: Phage-706 (peptide)
peptide: YCDGHEAQYMSKCL
modifications: cysteine pairing not given here; also: displayed on phage by fusion to pIII, pIII and linker sequence not given here
B7: Phage-704 (peptide)
peptide: YCDGHAPEYMEKCL
modifications: cysteine pairing not given here; also: displayed on phage by fusion to pIII, pIII and linker sequence not given here
B8: Phage-703 (peptide)
peptide: YCEGHSLEYMGKCL
modifications: cysteine pairing not given here; also: displayed on phage by fusion to pIII, pIII and linker sequence not given here
B9: Phage-701 (peptide)
peptide: YCEGHSPEYMTKCL
modifications: cysteine pairing not given here; also: displayed on phage by fusion to pIII, pIII and linker sequence not given here
B10: Phage-705 (peptide)
peptide: YCDGHMGVYYWKCL
modifications: cysteine pairing not given here; also: displayed on phage by fusion to pIII, pIII and linker sequence not given here
B11: Phage-698 (peptide)
peptide: YCAGHLPEYMMKCL
modifications: cysteine pairing not given here; also: displayed on phage by fusion to pIII, pIII and linker sequence not given here

Key:
[1] = target: Anti-CD28 Fab (SEQ ID NOs: 696, 697); assay: phage binding ELISA; captured anti-CD28 Fab pre-incubated with CD28 antigen as competitor, anti-M13 HRP detection
Sequence of Anti-CD28 Fab (SEQ ID NOs: 696, 697) (VH, as listed by the source, chain 1 of 2): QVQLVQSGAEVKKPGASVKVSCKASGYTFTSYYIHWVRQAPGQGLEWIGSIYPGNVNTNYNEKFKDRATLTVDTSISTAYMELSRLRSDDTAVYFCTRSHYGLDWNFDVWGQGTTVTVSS
Sequence of Anti-CD28 Fab (SEQ ID NOs: 696, 697) (VL, as listed by the source, chain 2 of 2): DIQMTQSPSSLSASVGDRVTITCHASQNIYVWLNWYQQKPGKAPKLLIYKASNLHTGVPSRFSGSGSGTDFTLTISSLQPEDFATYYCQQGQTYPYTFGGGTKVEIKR

[2] = target: Anti-CD28 Fab (SEQ ID NOs: 696, 697); assay: phage binding ELISA; biotinylated anti-CD28 Fab on neutravidin plate, clonal phage supernatant, anti-M13 HRP detection

Row | Binder | Anti-CD28 Fab signal in the presence of CD28 [1] | Anti-CD28 Fab (SEQ ID NOs: 696, 697) signal [2]
1 | B1 | 0.06 | 2.02
2 | B2 | 0.07 | 2.03
3 | B3 | 0.11 | 2.03
4 | B4 | 0.06 | 2.01
5 | B5 | 0.08 | 2.02
6 | B6 | 0.09 | 2.01
7 | B7 | 0.09 | 2.01
8 | B8 | 0.09 | 2.02
9 | B9 | 0.08 | 2.02
10 | B10 | 0.09 | 2.01
11 | B11 | 0.11 | 2.03
